The results in this text go back to the nanobody polyreactivity screen of Harvey et al. (2022).

A short description of this data set: yeast display, Sf9 membrane polyspecificity reagent, FACS + sequencing; frameworks hold sequencing errors. The procedure, abridged:
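After 36–48 hours of galactose induction, yeast (Saccharomyces cerevisiae BJ5465) displaying a synthetic nanobody library were stained at 4 °C for 1 hour with 10% biotinylated, detergent-solubilized Sf9 membrane reagent. Streptavidin microbeads enriched the stained cells before FACS sorting into low and high (top ~1%) gates on anti-HA and streptavidin fluorescence. Each clone's polyreactivity label reflects its gate of origin.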
For “QVQLVESGGGLVQAGGSLRLSCAASGLIFFINDMGWYRQAPGKERELVAAITSGGSTYYADSVKGRFTISRDNAKNTVYLQMNSLKPEDTAVYYCAADSYDWYDYWGQGTQVTVSS”, the “polyreactivity (PSR sort gate)” value is reported as “high polyreactivity”. With “QVQLVESGGGLVQAGGSLRLSCAASGLIFGGYAMGWYRQAPGKERELVAAISWDDGDTYYADSVKGRFTISRDNAKNTVYLQMNSLKPEDSAVYYCAAESLSGAHGYWGQGTQVTVSS”, the “polyreactivity (PSR sort gate)” value is given as “low polyreactivity”. As for “QVQLVESGGGLVQAGGSLRLSCAASGLIFGPYAMGWYRQAPGKERELVAGISRGGSTYYADSVKGRFTISRDNAKNTVYLQMNSLKPEDTAVYYCNAYTYPPYYSKWVRYRYDYWGQGTQVTVSS”, the “polyreactivity (PSR sort gate)” value is recorded as “high polyreactivity”. In the case of “QVQLVESGGGLVQAGGSLRLSCAASGLIFGTNAMGWYRQAPGKERELVAAISGSGGRTYYADSVKGRFTISRDNAKNTVYLQMNSLKPEDTAVYYCATAWYLGRYRRLGYWGQGTQVTVSS”, the “polyreactivity (PSR sort gate)” value is “high polyreactivity”. As for “QVQLVESGGGLVQAGGSLRLSCAASGLIFGTNAMGWYRQAPGKERELVAYITSGGSTYADSVKGRFTISRDNAKNTVYLQMNSLKPEDTAVYYCAAYVFWAFYEYDYWGQGTQVTVSS”, the “polyreactivity (PSR sort gate)” value is given as “low polyreactivity”. As for “QVQLVESGGGLVQAGGSLRLSCAASGLIFGWNARGWYRQAPGKERELVAAINSGGITNYADSVKGRFTISRDNAKNTVYFQMNWLKPEDTAVYYCAADVVQYGLDWYGEEYESWGQGTQVTVSS”, the “polyreactivity (PSR sort gate)” value is given as “low polyreactivity”.

Take “QVQLVESGGGLVQAGGSLRLSCAASGLIFGWYAMGWYRQAPGKERELVAAISWSGSRTNYADSVKGRFTISRDNAKNTVYLQMNSLKPEDTAVYYCAAGWGYSASRYGYWGQGTQVTVSS”: the “polyreactivity (PSR sort gate)” value is given as “high polyreactivity”. For “QVQLVESGGGLVQAGGSLRLSCAASGLIFGWYAMGWYRQAPGKERELVASISRSGGSTYYADSVKGRFTISRDNAKNTVYLQMNSLKPEDTAVYYCAALYYGFRLTYGYDYWGQGTQVTVSS” the value was “high polyreactivity”. With “QVQLVESGGGLVQAGGSLRLSCAASGLIFGYYAKGWNTQAPGKERELVADISSGGSSNYADSVKGRFTISRDNAKNTVYLQMMSLKPEVTAVYYCAARYSRWFGFWGQGTQVTVSS”, the “polyreactivity (PSR sort gate)” value was “high polyreactivity”. For “QVQLVESGGGLVQAGGSLRLSCAASGLIFGYYAMGWYRQAPGKERELVAAISWSGGRTYYADSVKGRFTISRDNAKNTVYLQMNSLKPEDTAVYYCAADTYPYIGGYYWGQVTQVTVSS”, the “polyreactivity (PSR sort gate)” value is “high polyreactivity”. With “QVQLVESGGGLVQAGGSLRLSCAASGLIFHFNAMGWYRQAPGKERELVAAITSIGGSTFYADSVKGRFTISRDNAKNTVYLQMNSLKPEDTAVYYCAAAISYFFPDYDYWGQGTQVTVSS”, the “polyreactivity (PSR sort gate)” value is recorded as “low polyreactivity”. With “QVQLVESGGGLVQAGGSLRLSCAASGLIFKDYAMGWYRQAPGKERELVAAISSSGGSTYYADSVKGRFTISRDNAKNTVYLQMNSLKPEDTAVYYCAARSFRYYSDYGYWGQGTQVTVSS”, the “polyreactivity (PSR sort gate)” value is “high polyreactivity”. Consider “QVQLVESGGGLVQAGGSLRLSCAASGLIFKIYAMGWYRQAPGKERELVASISSNGGTYYADSVKGRFTISRDNAKKTVYLQMNSLKPEDTAVYYCNAKRVARYQYGASYNYWGQGTQVTVSS”, for which the “polyreactivity (PSR sort gate)” value is on record as “high polyreactivity”. “QVQLVESGGGLVQAGGSLRLSCAASGLIFKSYLMGSYRQAPGKERELVAGITGSGGTTYYADSVKGRFTISRDNAKNTVYLQMNSLKPEDTAVYYCAARSRSRPKYDYWGQGTQVTVSS”: the “polyreactivity (PSR sort gate)” value was “high polyreactivity”. Take “QVQLVESGGGLVQAGGSLRLSCAASGLIFKVYAMGWYRQAPGKEWELVAAITYSGGSTDYADSVKGRFTISRDNAKNTVNLQMNSLKPEDTAVYYCNVEKVGHVNSYGYDYWGQGTQVTVSS”: the “polyreactivity (PSR sort gate)” value is given as “low polyreactivity”. With “QVQLVESGGGLVQAGGSLRLSCAASGLIFLTYAMGWYRQAPGKERELLATISGSTGGTYYADSVKGRFTISRDNAKNSVYLKMNSLKPEDTAVYYCNRRYGRSFRWGYCYWGEGTQVTVSS” the entry was “low polyreactivity”; with “QVQLVESGGGLVQAGGSLRLSCAASGLIFLYYAMGWYRQAPGKERELVAAISSSGSTYYADSGKGRFTISRDNAKNTVYLQMNSLKPEDTAVYYCAAAGYLYPYRYYYWGQGTQVTVSS”, “high polyreactivity”.

For “QVQLVESGGGLVQAGGSLRLSCAASGLIFLYYAMGWYRQAPGKERELVAAISSSGSTYYADSVKGRFTISRDNAKNTVYLQMNSLKPEDTAVYYCAAAGYLYPYRYYYWGQGTQVTVSS”, the “polyreactivity (PSR sort gate)” value is on record as “high polyreactivity”. For the sequence “QVQLVESGGGLVQAGGSLRLSCAASGLIFNFYAMGWYRPAPGKEREFVAAISWNAGSTYYADSVKGRFTISRDNAKNTVYLQMNSLKPEDTAVYYCNADQDYQGARPSGMDYWGQGTQVTVSS”, the “polyreactivity (PSR sort gate)” value is “low polyreactivity”.

On to “QVQLVESGGGLVQAGGSLRLSCAASGLIFNTYAMGWYRQAPGKERELVAAITDGGGTNYADSVKGRFTISRDNAKNTVYLQMNSLKPEDTAVYYCAARLASWPLTYDFQWYEYWVQGTQVTVSS”, for which the “polyreactivity (PSR sort gate)” value is reported as “low polyreactivity”. Take “QVQLVESGGGLVQAGGSLRLSCAASGLIFNVNAMGWYRQAPRKERELVAAITGGGGSTYYADSVKGRFTISRDNAKNTVYLQMNSLKPEDTAVYYCAATTGLYTRYGDWGQVTQVTVSS”: the “polyreactivity (PSR sort gate)” value is reported as “high polyreactivity”. “QVQLVESGGGLVQAGGSLRLSCAASGLIFPGYDMGWYRAAPGKVRELVAAISDSGANTYYADSVKVRFTISRDNAKNTVYLQMNSLKPEDTAVYYCAADSSWGYGTYFGRFDYWGQGTQVTVSS”: the “polyreactivity (PSR sort gate)” value was “low polyreactivity”.

Take “QVQLVESGGGLVQAGGSLRLSCAASGLIFPLYAMGWYRQAPGKERELVAAISRTGVSTDYADSVKGRFTISRDNAKNTVYLQMNSLKPEDTAVYYCNKVRTPRRRYDYWGQGTQVTVSS”: the “polyreactivity (PSR sort gate)” value is on record as “low polyreactivity”. With “QVQLVESGGGLVQAGGSLRLSCAASGLIFPRYDIGWYRQAPGKESEFVAAITSGGGTYYADSVKGRFTLSRDNAKNTVYLQMNSVKPEDTAVYYCARDHYRHSRYFYRYDYWGQGTQVTVSS” the entry was “low polyreactivity”. With “QVQLVESGGGLVQAGGSLRLSCAASGLIFPSYARGWYRQAPGKERELVAGINSGGSTNYADSVKGRFTISRDNAKNTVYLQMNSLKPEDTAVYYCAKDNNYYWYVSPRDYWGQGTQVTVSS” the entry was “low polyreactivity”; with “QVQLVESGGGLVQAGGSLRLSCAASGLIFPYYAMGWYREAPGKARELVASIRYSAGNTYYADSVKGRFTISRDNAKNTVYLQMNSLKPEDTAVYYCWYTQNTLGNYWGQGTQVTVSS”, “low polyreactivity”. As for “QVQLVESGGGLVQAGGSLRLSCAASGLIFPYYTMGWYRQAPGKEGELVAVINRGGSTSYADSVKGRFTISRDNEKISVYLQMNSLKPEYTAVYYCARRTPYYTSYAFDSWGQGTQVTVSS”, the “polyreactivity (PSR sort gate)” value is on record as “high polyreactivity”. In the case of “QVQLVESGGGLVQAGGSLRLSCAASGLIFQGYAMGWYRQAPGKEREFVAVITWSGGSTYYADSVKGRFTISRDNAKNTVYLQMNSLKPEDTAVYYCADDDVWYDFDYWGQGTQVTVSS”, the “polyreactivity (PSR sort gate)” value is on record as “low polyreactivity”. For the sequence “QVQLVESGGGLVQAGGSLRLSCAASGLIFQVYDMGWYRQAPGKERELVAATSSGSKTNYADSVKGRFTISRDNAKNTVYLQMNSLKPEDTAVYYCAAGGPSTLDDYWGQGTQVTVSS”, the “polyreactivity (PSR sort gate)” value is “low polyreactivity”. On to “QVQLVESGGGLVQAGGSLRLSCAASGLIFRFYAMGWYRQAPGKERELVAAISGGGGSTYYADSVKGRFTISRDNAKNTVYFQMNSLKPEDTAVYYCNTVNDKRAYGKMGYWGQGTQVTVSS”, for which the “polyreactivity (PSR sort gate)” value was “high polyreactivity”. For the sequence “QVQLVESGGGLVQAGGSLRLSCAASGLIFRGYAMGWYRQAPGKERELVAAISKSGGSTYYADSVKGRFTISRDNAKNTVYLQMNSLKPEDTAVYYCNARKHGSRTGGYYWGQGTQVTVSS”, the “polyreactivity (PSR sort gate)” value is listed as “high polyreactivity”. Take “QVQLVESGGGLVQAGGSLRLSCAASGLIFRHYAMGWYRQAPGKERELVAAINWDGTSTDYADSVKGRFTISRDNAKNTVYLQMNSLKPEDTAVYYCAAEGHTAFVVYRVSPLQYDYWGHGTQVTVSS”: the “polyreactivity (PSR sort gate)” value is listed as “low polyreactivity”.

In the case of “QVQLVESGGGLVQAGGSLRLSCAASGLIFRIYAMGWYRQAPGKETELVAAISNSGGYTYYADSVKGRFTISRDNAKNTVYLQMNSLKPEDTAVYYCAAELRLWPWRRFDYWGQGTQVTVSS”, the “polyreactivity (PSR sort gate)” value is on record as “high polyreactivity”. Take “QVQLVESGGGLVQAGGSLRLSCAASGLIFRKNAMGWYRQAPGKEMELVAAISSSDSSTYADSVKGRCTISRDNAKNTVYLQMNSLKPEDTAVYYCAAASYNWLDWVTREYWGQGTQVTVSS”: the “polyreactivity (PSR sort gate)” value is given as “low polyreactivity”. As to “QVQLVESGGGLVQAGGSLRLSCAASGLIFRPYAIGWYRQAPGKERELVAGITSGGNTDYADSVKGRFTISRDNAKNTVYLQMNSLKPEDTAVYYCADYFIYGYWGQGTQVTVSS”, the “polyreactivity (PSR sort gate)” value was “low polyreactivity”. For “QVQLVESGGGLVQAGGSLRLSCAASGLIFRPYAMGWYRQAPGKERELFAGISFRGDSTYYADSVKGRFTISRDNAKNTVYLQMNCLKPEDTAVYYCDADVYIYWPPDKLLGYDYWGQGSQVTVSS” the value was “low polyreactivity”; for “QVQLVESGGGLVQAGGSLRLSCAASGLIFRRYAMGRNRQAHGKERELVAAISRSGGSTYYADSVKGRFTISRDNEKNTVYLQMNSLKPEDTAVYYCAADYAPVFWGDYKYDYWGQGTQVTVSS”, “high polyreactivity”. In the case of “QVQLVESGGGLVQAGGSLRLSCAASGLIFRVYAMGWYRQAPGKERELVAAISISDGTTNYADSVKGRFTISRDNAKNTVYLQMNSLKPEDTAVYYCAADYDFYDFSYQSWSEENYWGQGTQVTVSS”, the “polyreactivity (PSR sort gate)” value is listed as “low polyreactivity”.

For “QVQLVESGGGLVQAGGSLRLSCAASGLIFRVYTMGWYRQAPGKERELVSAITGRGGRTYYADSVKGRFTISRDNAKNTVYLQMNSLKPEDTAVYYCATGGRYQQAAYTGYNYWGQGTQVTVSS”, the “polyreactivity (PSR sort gate)” value is “high polyreactivity”. “QVQLVESGGGLVQAGGSLRLSCAASGLIFRWYAMAWYRQAPGKERELVAAISRRGGTTNYADSVKGRFTISRDNAKNTVYLQMNTLKPEDTAVYYCAADYQSVGGAEYDYWGQGTQVTVSS”: the “polyreactivity (PSR sort gate)” value was “high polyreactivity”.

“QVQLVESGGGLVQAGGSLRLSCAASGLIFRYNTMGWYRQAPGKERELVAAITSSGVRTYYADSVKGRFTISRDNAKNTVYLQMNSLKPEDTAVYYCAAEGKSYPWPWYFDYWGQGTQVTVSS”: the “polyreactivity (PSR sort gate)” value is reported as “high polyreactivity”.
